The nature of experiment [1]: In vivo carboxylate reductase screening, substrate consumption by LC-MS, monomethyl heptanedioate. The class given is cell-based, Escherichia coli. Conditions: 541 enzymes screened in vivo. As to the method: To screen carboxylate reductases in vivo, […] T7- pUC expression vectors was co-transformed into T7 Express lysY/Iq with the phosphopantetheinyl transferase sfp from Bacillus subtilis on a T7-pCDF expression vector. Biological duplicates of the resulting strains were incubated in 0.5 mL of terrific broth containing either 1 g/L heptanedioate or 1 g/L monomethyl heptanedioate and supplemented with 0.4 mM IPTG in 96-well deep well plates. The plates were incubated for 30 h at 30° C. in a shaking incubator. The cells were then pelleted, and culture supernatants from the same strains in media containing either heptanedioate or monomethyl heptanedioate were combined. The combined supernatants were analyzed by LC-MS to determine the concentration of heptanedioate and monomethyl heptanedioate. Carboxylate reductase activity on heptanedioate or monomethyl heptanedioate was reflected by consumption of the respective substrate in the medium.

The subject of experiment [2] is heptanedioyl-ACP methyl ester. Put plainly: Cell lysate in vitro thioesterase screen (DTNB, absorbance at 410 nm) on heptanedioyl-ACP methyl ester. The class given is biochemical. Conditions: 0.33 mM acyl-ACP substrate, 30° C., 30 min.
The subject of experiment [3] is heptanedioyl-ACP methyl ester. It counts as cell-based, Escherichia coli. Conditions: top 150 hits screened in vivo.

B1: SEQ ID NO: 210: Rhizopus microspores carboxylate reductase (protein, listed as Rhizopus microsporus)
chain: MPPAFDPPYSVPVPGSEKKEGETVPFRHFKFADKLVDHPEGVFTAWDIFVHGYDSAGDKPFMGTRRIEDGVAKEYVWQNYPEVRTRIENFGKGMLHLGLKRQHAIGVYSVNRPEWTMTEIASYRQAFMIVALYDTLGAEAMEYIINQTSMEYIVLSADKLDNIIRLKSQIATISTAIVMDDEVDDAKKAEAEAAGIKVYTFRQVETMGSEITSESDLPKPEDIATICYTSGTTGVPKGAVITQANCVAAISAIAALGDKGTFADVNSDDIYISYLPLAHVFERVAQGIHLFRGAAIGYYQGDTLKLLDDIAELRPTVFCSVPRLFNRIYDKVLAGVKAKGGVSAYLFNTAFQSKKRHLSKTVHHWLWDRVVFTQIRQKLGGRLRFILSGSAPVSPDVMDFMRICFSAKVFEGYGQTENFCGGALTITDDNTSGVVGAPFPCSEIKLVDVPEMEYFSTDKPFPRGEICIRGTSIMQGYYQLPEKTAEAIDKDGWLHTGDIGQFDSANRLVIIDRLKNIFKLSQGEYIAPEKIEGVYQKHELVAQAFIYGDSMQSSLVGIIVPDKDAFSAWAKEHFPTVEDPYASDEVKKALLKELTAYGKENDLKGFEQMRSVYLTPNEFSIENDLLTPTFKLRRENAKKVYESQIEIMYASLSNGRAFN
Turning to B1, the monomethyl heptanedioate activity entry in experiment [1] was “most monomethyl heptanedioate activity”.

B2: SEQ ID NO: 208: Ascaris suum carboxylate reductase (protein, listed as Ascaris suum)
chain: MRYWWKTSHSNYKLDAVCDINNQTRELPVSVASCKDGSRVAACLDGDHLAPFIHEDALTLYEGVRRGLRVSNNGPMLGYRKKQPDGSEPYVWLTYKEVIDRAVDFAYGLLDVGIPAGQKTFIGVYAKNRPEWVIAEQGTYNNNSVLVPLYETLGPDACTFIINQSEMSMVICDTEVKAAGLLKEKENIPTLKYLVVMEDYTNGLREAAAREGVYVYHFLDIEKRGREFVNKPALQIPSPGDVCTICYTSGTTGAPKGVMLTHGNVIAAATALTFVRNINFCETDVVISFLPLAHMFERLLECIIFQTGAHVGFFSGDIRRLPEDIKELRPTVIPLVPRVLNRIYDKVMSEVNKSFIKKAVFHFALAFKVRELRNGIVRNDSVFDKLVFNKIRDAMGGRVKLMVTGSAPLAEKVMTFARAAMGCVVLEGYGQTECAAASTLGIEADTRAGHVGIPSICNAVKLVDVPELEYYAKDMVGEVCIRGFNVFKGYYKNDELTREVLDDQGWLHTGDVGRWTENGTLQIIDRKKHIFKLSQGEYVAPEKIEGIYARSKYVAQSFVHGESLKTCLVGVIVPDPEALERVAAERFGLKDVKLKELCSNEAVRQLILEDITAVGKKAGLFSFEQVKDIFLTPDAFSVGNDLLTPTLKNKRPKLKEHFAAQLESMYSKLN
With B2, the monomethyl heptanedioate activity result in experiment [1] was “most monomethyl heptanedioate activity”.

B3: SEQ ID NO: 76: Thermovirga lienii thioesterase (protein, listed as Thermovirga lienii)
chain: MYEHNFRISYSQAGALGRLKLTGAMNLCQDIADDHAERVGVSVADLLKQSKTWVLHRFKMTIQTMPQRGDLVTIKTWYRPEKNLYSLRNFEMLDCNGKKLLSVQTSWVVVDMNRGRPLRLDRVMPEAYDKNKDENLEVSFQELLLPEKVDVKKTIQVAVTDLDMNFHVNNVHYLRWALDTIPVEILKEYKPKGVEIAFKRPAFYGDSVISEVGIDKNSCSILCRHHIYGEKDGQSMAVISTEWEKISREER
modifications: Thermovirga lienii (strain ATCC BAA-1197 / DSM 17291 / Cas60314)
notes: Thermovirga lienii thioesterase
In the case of B3, in experiment [2], the “activity toward heptanedioyl-ACP methyl ester (hydrolysis)” value is given as “notable for their activity toward heptanedioyl-ACP methyl ester”. Further, the “activity toward heptanedioyl-ACP methyl ester in vivo” value in experiment [3] is given as “showed activity toward heptanedioyl-ACP methyl ester”.

B4: SEQ ID NO: 75: Clostridium thermocellum thioesterase (protein, listed as Clostridium thermocellum)
chain: MQKKRFSKKYEVHYYEINSMQEATLLSLLNYMEDCAISHSTSAGYGVNELLAADAGWVLYRWLIKIDRLPKLGETITVQTWASSFERFYGNREFIVLDGRDNPIVKASSVWIYFNIKKRKPMRIPLEMGDAYGIDETRALEEPFTDFDFDFEPKVIEEFTVKRSDIDTNSHVNNKKYVDWIMETVPQQIYDNYKVTSLQIIYKKESSLGSGIKAGCVIDEQNTDNPRLLHKIWDKNTGLELVSAETIWQKIQS
modifications: Clostridium thermocellum (strain ATCC 27405 / DSM 1237 / NBRC 103400 / NCIMB 10682 / NRRL B-4536 / VPI 7372)
notes: Clostridium thermocellum thioesterase
As for B4, the “activity toward heptanedioyl-ACP methyl ester (hydrolysis)” value in experiment [2] is listed as “notable for their activity toward heptanedioyl-ACP methyl ester”. Also, in experiment [3], the “activity toward heptanedioyl-ACP methyl ester in vivo” value was “showed activity toward heptanedioyl-ACP methyl ester”.

B5: SEQ ID NO: 211: Theileria parva carboxylate reductase (protein, listed as Theileria parva)
chain: MNHLYSVALEGTEEEGYTPVYRNPDYKDRLLSCEDYFDGKIQTGWDIFNRGLTLSRNKPFLGSRVKNADGTFGEFKFMTYGEVEDQIKHFGSGLLNLDKFKEVFVKEENQMVKMLGIYSQNTVEWLITEQVCNGYNLTLVPLYDTLGEESLLYIINVTKLNVIVCDYKCSLKLLDLLPKSNGSVSLVVVTGVDELPDQVTAKSQSLSSVTFKTYQEVVNFGKEDPLAFTPCTKDSIGTISYTSGVSGIPKGVIVKHFQHASLVVIVNRIVCDLEKTQLENPKVHLSYLPLSHMFERLYIGTSIIEGSVIGLFSGDVKNILEDIKALRPNVFPSVPRLYMRIHDKIFSTVSQKSFLIRSLFGLGLSRKLKKIRKTGVVTHRFWDKILFNKFNTLLGGRVNWMLTGSAPLSPKIFDNIRALFSIPLVSGYGLTETCAGAFHTERYEPDSTHVGGPVPCMEFRLKSLPDYNYYTTDKNPKGELLLRGNNIVTSYFSDDVTNKESFDENKWFLTGDIAELLPNGAIRIIDRRKNIFKLSQGEYISPEKIESILNTAPILCQSYVTGKSHFLNPVAVVVPDELELELWSKRYGLANLDRKEQCEVKQLKEFIAKEIEKVFENSDVKGFEKIKNFYVEHELFSIENNLLTTTSKLKRYNLSKKYAEQIDRLNDES
For the molecule B5, the monomethyl heptanedioate activity entry in experiment [1] is on record as “most monomethyl heptanedioate activity”.

B6: SEQ ID NO: 61: Congregibacter litoralis KT71 thioesterase (protein)
chain: MGLLLGLALLLTGQLARAESTAGERPRILVVGDSISAAYGMSLEQGWAALLERRLQTRWPGAQVINASISGDTSAGGARRLPKLLAEHSPDLVVIELGGNDGLRGYPTSKLEANLSFMAEAASTAGAEVLILPMEIPPNYGPRYTRSFRESFERAATDTGATLGPFLLDGIATEEQLMQQDGIHPTVEAQPMITDIVQPVIEALLALREAS
modifications: Congregibacter litoralis KT71
notes: Congregibacter litoralis KT71 thioesterase
Regarding B6, the “activity toward heptanedioyl-ACP methyl ester (hydrolysis)” value in experiment [2] is listed as “notable for their activity toward heptanedioyl-ACP methyl ester”.

B7: SEQ ID NO: 209: Nocardia brasiliensis NBRC 14402 carboxylate reductase (protein)
chain: MERKAEVLAARRVEDLIERDAQVRAAIPDPVVTAELERADGSLAQTVARVMAGYADRPALGQRAVEFVPDENGCRRTRLLPWFDTITFGELWQRVGTVAAVWQSRAERSVRAGDFVAVLGSTGIDYTVVDLACTYSGAVPVPLQAGASPTQLAPIVREVEPKVLATDVGQLEVAVDLASAGDSVRSLLIFGLYAEDDEHCAAVESARRRLADTPVVVETIVELLASGQDRPAASLHASADPDELALLIYTSGSTGTPKGAMYTQRLLTNAWCAAGASPMPSIALSYLPMSHTMARQLLLTGLARGGTVYFAARNDMSTLFDDFALARPTLLGFVPRVCDMVLQRFQSEMARRVGADDEPTVVEQEVKTELREQFLGGRFLVASIGSAPLSADMREFMQSVLGIALIDAYGSTETGGVLMNNKVVRTAILDYKLVDVPELGYFSTDRPHPRGELLIKSRTLIPGYYKRPELNSQFFDAEGFYRTGDVMAQTGFDELVYVDRRNSVLKLSQGEFVAVSKLEAIFVGSPLVEQIYVYGSSERAYLLAVIVPVAEAIATHAGTAELKAAISESLRQIAKDAELSSYEVPRDFLLESEPFTVDNGLLAGLSKLLRPSLKERYGERLEALYRVAEAAQTQELAALRQQAGMLPVLETVSRAAQAVLGVSAAELRPDAHFTDLGGDSLAALSFSTLLQELLGVQVPVGVIASSANDLRRIANYAVAERSAGSLRPTSTGVHGTGSQLRAIDLRLDKFIDPSTLAAATTLPRAGEPRTVLLTGANGYLGRFLCLEWLQRLHHSGGTLICVVRGIDAVAARERLDEVFDSGDPELLHRYRELAEGTLEVLCGDISEPGLGLSERDWRRLADTVELIVHAAALVNHVLPYGQLFGPNVVGTAEIIRLAMTTRIKPVTYLSTVAVAAQVAPEQFTEDGDIREISAVRSLDEGYADGYGTSKWAGEVLLREAYDLCGLPVAVFRSDMILAHSRFAGQLNVSDMFTRLVLSVLATGVAPKSFYETDRMGNRQRAHYDGLPVDFTAQAITVLGSQVVSGFETFDVLNPHDDGLSLDEFVDWLIAAGHSIDRIDGYAEWLSRFGTALRVLSERQRQHSVLPLLHAYRRAAVPIPGAALPAKKFQAAVQDAQLGPGRDIPHLTPDLIEKYVSDLKLRNLL
modifications: Nocardia brasiliensis NBRC 14402
notes: Nocardia brasiliensis NBRC 14402 carboxylate reductase
For the molecule B7, in experiment [1], the monomethyl heptanedioate activity result is given as “most monomethyl heptanedioate activity”.

B8: SEQ ID NO: 207: Dictyostelium discoideum carboxylate reductase (protein, listed as Dictyostelium discoideum)
chain: MINNWLAVGLLVVSGILAFNWKRKHPYGQTVEIGEKPENGGRIRRNSACADHLISFLEDDEIYTLYDSLVKSCKKYGERKCFGERKKDSNGNLGKFEWISYNTYLERCEYIQQGLCELGLKPKSKVGIFSKNRLEWLIVHSASFIQSYCVVSFYETLGVESLSYVTEHAEIGLAFCSAETLQKTLDIAKGVKVLKTIICFDSIDKEHYNIAKELGVTLYTYDEIMKKGKEANGKHKHTPPTPDTLSTIMYTSGTTGPPKGVMITHKNLTSVVCAVSDFIKVYDTDVHYSYLPYAHVLERVVILAAFHFGAAIGIFSGDISNILVEVKLLSPTLFIGVPRVFERIKTNVFKEISKKPALLRTLFNGAYNLKYLSIQHGFKLPIIEKVLDLVFFSKIKQALGGKVRVILSGSAPLSFDTEVFLRVVMCCCVLQGYGASEGCGGDACKRLDDESVGTIGPPFASNEIKLVDVPELGYDSNGEVQTGEVCLRGPSISSGYYKDEEKTREEFKDGWFHTGDIGRWNRDGSLSIVDRKKNIFKLSQGEYVAVEKIETIVVKSEYVEQVCIYGDSQKSCVIAIIHPHPESCSEWAGSKKTDKDIKEICKNQDFIKVVLDDIIKNCKKSGLHGFEIPKAIHLTPEAFSDQNNLLTPSFKLKRHEIKKYFEDEIKKLYSKLD
For the molecule B8, the monomethyl heptanedioate activity entry in experiment [1] is given as “most monomethyl heptanedioate activity”.
